From paper PMC12095639

Biological target: Ankyrin and SOCS Box-containing protein-10 (Asb10), rat, FLAG-tagged, expressed from adenovirus (Ad-Asb10) (rat)
Assay: co-IP; NRVMs overexpressing Asb10; lysates incubated with antibody and Protein A&G magnet beads overnight at 4 °C, washed 5 times with 0.5% PBST; western blot of candidate interacting proteins (Fig. 3C)

- fold weaker binding than HSP70 with Asb10: 10 fold
Substance: HSC70, endogenous in NRVMs (from UniProt P63018 1-646) (natural protein)
